{
  "source": "the Human Domainome abundance scans (Beltran et al. 2025)",
  "note": "± gives the uncertainty stated by the source.",
  "data": [
    {"assay": "abundance fitness (aPCA) (normalised: wild type 0, dead -1); higher = more abundant; growth selection in yeast, the domain comes from the species named", "conditions": "Saccharomyces cerevisiae (strain ATCC 204508 / S288c)", "values": [
      {"substance": "E3 ubiquitin-protein ligase RSP5 L333D, P39940", "abundance fitness": "-0.472 ± 0.14"},
      {"substance": "E3 ubiquitin-protein ligase RSP5 L333E, P39940", "abundance fitness": "-0.64 ± 0.075"},
      {"substance": "E3 ubiquitin-protein ligase RSP5 L333F, P39940", "abundance fitness": "-0.034 ± 0.054"},
      {"substance": "E3 ubiquitin-protein ligase RSP5 L333G, P39940", "abundance fitness": "-0.708 ± 0.043"},
      {"substance": "E3 ubiquitin-protein ligase RSP5 L333H, P39940", "abundance fitness": "-0.451 ± 0.07"},
      {"substance": "E3 ubiquitin-protein ligase RSP5 L333I, P39940", "abundance fitness": "-0.227 ± 0.067"},
      {"substance": "E3 ubiquitin-protein ligase RSP5 L333K, P39940", "abundance fitness": "-0.6 ± 0.09"},
      {"substance": "E3 ubiquitin-protein ligase RSP5 L333M, P39940", "abundance fitness": "-0.037 ± 0.097"},
      {"substance": "E3 ubiquitin-protein ligase RSP5 L333N, P39940", "abundance fitness": "-0.627 ± 0.1"},
      {"substance": "E3 ubiquitin-protein ligase RSP5 L333P, P39940", "abundance fitness": "-0.63 ± 0.054"},
      {"substance": "E3 ubiquitin-protein ligase RSP5 L333S, P39940", "abundance fitness": "-0.654 ± 0.053"},
      {"substance": "E3 ubiquitin-protein ligase RSP5 L333T, P39940", "abundance fitness": "-0.572 ± 0.054"},
      {"substance": "E3 ubiquitin-protein ligase RSP5 L333V, P39940", "abundance fitness": "-0.447 ± 0.05"},
      {"substance": "E3 ubiquitin-protein ligase RSP5 L333W, P39940", "abundance fitness": "-0.331 ± 0.052"},
      {"substance": "E3 ubiquitin-protein ligase RSP5 N353D, P39940", "abundance fitness": "-0.147 ± 0.15"},
      {"substance": "E3 ubiquitin-protein ligase RSP5 N353E, P39940", "abundance fitness": "-0.149 ± 0.06"},
      {"substance": "E3 ubiquitin-protein ligase RSP5 N353F, P39940", "abundance fitness": "-0.323 ± 0.11"},
      {"substance": "E3 ubiquitin-protein ligase RSP5 N353G, P39940", "abundance fitness": "-0.132 ± 0.043"},
      {"substance": "E3 ubiquitin-protein ligase RSP5 N353H, P39940", "abundance fitness": "-0.563 ± 0.14"},
      {"substance": "E3 ubiquitin-protein ligase RSP5 N353I, P39940", "abundance fitness": "-0.083 ± 0.078"},
      {"substance": "E3 ubiquitin-protein ligase RSP5 N353K, P39940", "abundance fitness": "-0.141 ± 0.08"},
      {"substance": "E3 ubiquitin-protein ligase RSP5 N353L, P39940", "abundance fitness": "-0.278 ± 0.044"},
      {"substance": "E3 ubiquitin-protein ligase RSP5 N353M, P39940", "abundance fitness": "-0.132 ± 0.062"},
      {"substance": "E3 ubiquitin-protein ligase RSP5 N353P, P39940", "abundance fitness": "-0.673 ± 0.065"},
      {"substance": "E3 ubiquitin-protein ligase RSP5 N353Q, P39940", "abundance fitness": "-0.212 ± 0.052"},
      {"substance": "E3 ubiquitin-protein ligase RSP5 N353R, P39940", "abundance fitness": "-0.177 ± 0.04"},
      {"substance": "E3 ubiquitin-protein ligase RSP5 N353S, P39940", "abundance fitness": "-0.109 ± 0.061"},
      {"substance": "E3 ubiquitin-protein ligase RSP5 N353T, P39940", "abundance fitness": "-0.113 ± 0.059"},
      {"substance": "E3 ubiquitin-protein ligase RSP5 N353V, P39940", "abundance fitness": "-0.217 ± 0.044"},
      {"substance": "E3 ubiquitin-protein ligase RSP5 N353W, P39940", "abundance fitness": "-0.44 ± 0.061"},
      {"substance": "E3 ubiquitin-protein ligase RSP5 P334A, P39940", "abundance fitness": "-0.61 ± 0.07"},
      {"substance": "E3 ubiquitin-protein ligase RSP5 P334C, P39940", "abundance fitness": "-0.746 ± 0.072"},
      {"substance": "E3 ubiquitin-protein ligase RSP5 P334D, P39940", "abundance fitness": "-0.592 ± 0.091"},
      {"substance": "E3 ubiquitin-protein ligase RSP5 P334E, P39940", "abundance fitness": "-0.689 ± 0.056"},
      {"substance": "E3 ubiquitin-protein ligase RSP5 P334F, P39940", "abundance fitness": "-0.889 ± 0.083"},
      {"substance": "E3 ubiquitin-protein ligase RSP5 P334G, P39940", "abundance fitness": "-0.629 ± 0.044"},
      {"substance": "E3 ubiquitin-protein ligase RSP5 P334H, P39940", "abundance fitness": "-0.658 ± 0.078"},
      {"substance": "E3 ubiquitin-protein ligase RSP5 P334K, P39940", "abundance fitness": "-0.86 ± 0.071"},
      {"substance": "E3 ubiquitin-protein ligase RSP5 P334L, P39940", "abundance fitness": "-0.837 ± 0.072"},
      {"substance": "E3 ubiquitin-protein ligase RSP5 P334M, P39940", "abundance fitness": "-0.702 ± 0.059"},
      {"substance": "E3 ubiquitin-protein ligase RSP5 P334Q, P39940", "abundance fitness": "-0.68 ± 0.056"},
      {"substance": "E3 ubiquitin-protein ligase RSP5 P334R, P39940", "abundance fitness": "-1.03 ± 0.05"},
      {"substance": "E3 ubiquitin-protein ligase RSP5 P334S, P39940", "abundance fitness": "-0.582 ± 0.053"},
      {"substance": "E3 ubiquitin-protein ligase RSP5 P334T, P39940", "abundance fitness": "-0.857 ± 0.069"},
      {"substance": "E3 ubiquitin-protein ligase RSP5 P334V, P39940", "abundance fitness": "-0.966 ± 0.05"},
      {"substance": "E3 ubiquitin-protein ligase RSP5 P334W, P39940", "abundance fitness": "-1.01 ± 0.071"},
      {"substance": "E3 ubiquitin-protein ligase RSP5 P334Y, P39940", "abundance fitness": "-0.627 ± 0.14"},
      {"substance": "E3 ubiquitin-protein ligase RSP5 P343A, P39940", "abundance fitness": "0.013 ± 0.044"},
      {"substance": "E3 ubiquitin-protein ligase RSP5 P343C, P39940", "abundance fitness": "-0.147 ± 0.16"},
      {"substance": "E3 ubiquitin-protein ligase RSP5 P343D, P39940", "abundance fitness": "0.099 ± 0.064"},
      {"substance": "E3 ubiquitin-protein ligase RSP5 P343E, P39940", "abundance fitness": "-0.019 ± 0.043"},
      {"substance": "E3 ubiquitin-protein ligase RSP5 P343F, P39940", "abundance fitness": "-0.417 ± 0.49"}
    ]}
  ]
}
